Values quoted from earlier work in publication PMC4753134.
pKd: −log10 of the molar value.

Experiments:
EGFR (Homo sapiens) = EGFR (Homo sapiens) (UniProt P00533)
Met (Homo sapiens) = Met (Homo sapiens) (UniProt P08581)
UniProt P08581, sequence (P08581 25-932): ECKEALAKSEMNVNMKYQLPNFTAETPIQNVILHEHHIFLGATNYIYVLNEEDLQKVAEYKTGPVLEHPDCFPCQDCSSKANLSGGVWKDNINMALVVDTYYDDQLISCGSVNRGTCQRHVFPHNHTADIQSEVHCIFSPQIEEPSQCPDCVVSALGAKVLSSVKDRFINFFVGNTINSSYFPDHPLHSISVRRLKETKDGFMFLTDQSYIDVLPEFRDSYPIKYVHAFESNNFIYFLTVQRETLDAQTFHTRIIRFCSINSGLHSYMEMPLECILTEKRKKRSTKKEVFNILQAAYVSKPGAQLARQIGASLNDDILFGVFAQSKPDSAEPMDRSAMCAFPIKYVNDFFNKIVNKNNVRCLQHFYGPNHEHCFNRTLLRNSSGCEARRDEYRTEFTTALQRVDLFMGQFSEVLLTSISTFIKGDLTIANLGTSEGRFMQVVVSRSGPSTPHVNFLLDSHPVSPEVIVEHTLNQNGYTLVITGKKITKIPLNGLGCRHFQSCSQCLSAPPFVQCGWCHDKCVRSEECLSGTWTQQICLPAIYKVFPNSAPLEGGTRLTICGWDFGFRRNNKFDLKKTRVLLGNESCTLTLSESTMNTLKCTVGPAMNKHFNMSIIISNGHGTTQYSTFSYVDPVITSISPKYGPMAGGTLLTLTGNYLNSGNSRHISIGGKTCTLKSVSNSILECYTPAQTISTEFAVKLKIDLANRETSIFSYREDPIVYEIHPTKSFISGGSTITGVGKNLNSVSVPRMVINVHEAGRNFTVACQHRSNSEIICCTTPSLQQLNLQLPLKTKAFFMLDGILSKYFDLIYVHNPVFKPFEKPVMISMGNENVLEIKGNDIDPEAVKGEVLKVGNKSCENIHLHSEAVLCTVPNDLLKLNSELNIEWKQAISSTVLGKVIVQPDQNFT

Q: What does the source list for decorin (from UniProt P07585)?
A: pKd (EGFR (Homo sapiens)): 7.06; pKd (Met (Homo sapiens)): 8.70
